For this test, the target named is T1, FLAG-HSP90α wild type (human, UniProt P07900 1-732).
T1 construct: HSP90α, stress-inducible cytosolic HSP90 isoform, encoded by HSP90AA1, human; The plasmid list names only pcDNA3-FLAG-HSP90α; the LUMIER methods call the protein 3XFLAG-tagged; also called HSP90α WT; 3XFLAG-HSP90α; source: HEK293, transfected, in lysate
As to the kind of experiment: LUMIER; HEK293 in 96-well plates co-transfected with NanoLuc-client and 3XFLAG-HSP90α or β; TGNET lysate on anti-FLAG antibody-coated plate 2 h at 4°C; NanoLuc read-out divided by anti-FLAG-HRP read-out = relative interaction strength. As to conditions: partners not purified.

B1: NL-RHOBTB2/DBC2 (natural protein, UniProt Q9BYZ6 1-727, looked up)
chain: MDSDMDYERPNVETIKCVVVGDNAVGKTRLICARACNATLTQYQLLATHVPTVWAIDQYRVCQEVLERSRDVVDDVSVSLRLWDTFGDHHKDRRFAYGRSDVVVLCFSIANPNSLHHVKTMWYPEIKHFCPRAPVILVGCQLDLRYADLEAVNRARRPLARPIKPNEILPPEKGREVAKELGIPYYETSVVAQFGIKDVFDNAIRAALISRRHLQFWKSHLRNVQRPLLQAPFLPPKPPPPIIVVPDPPSSSEECPAHLLEDPLCADVILVLQERVRIFAHKIYLSTSSSKFYDLFLMDLSEGELGGPSEPGGTHPEDHQGHSDQHHHHHHHHHGRDFLLRAASFDVCESVDEAGGSGPAGLRASTSDGILRGNGTGYLPGRGRVLSSWSRAFVSIQEEMAEDPLTYKSRLMVVVKMDSSIQPGPFRAVLKYLYTGELDENERDLMHIAHIAELLEVFDLRMMVANILNNEAFMNQEITKAFHVRRTNRVKECLAKGTFSDVTFILDDGTISAHKPLLISSCDWMAAMFGGPFVESSTREVVFPYTSKSCMRAVLEYLYTGMFTSSPDLDDMKLIILANRLCLPHLVALTEQYTVTGLMEATQMMVDIDGDVLVFLELAQFHCAYQLADWCLHHICTNYNNVCRKFPRDMKAMSPENQEYFEKHRWPPVWYLKEEDHYQRARKEREKEDYLHLKRQPKRRWLFWNSPSSPSSSAASSSSPSSSSAVV
notes: E3-ubiquitin ligase RHOBTB2/DBC2; also called RHOBTB2 fused to NanoLuc luciferase; source: HEK293, transfected, in lysate; not shown: NanoLuc luciferase, N-terminal, kept
For B1, the “fold difference in relative interaction strength, HSP90α against HSP90β” value is approximately 3 fold.

The values are drawn from article PMC4627809, “Client Proteins and Small Molecule Inhibitors Display Distinct Binding Preferences for Constitutive and Stress-Induced HSP90 Isoforms and Their Conformationally Restricted Mutants” (PLoS ONE, 2015).
